We go through one substance from US20260199558A1, “INJECTABLE COMPOSITIONS FOR TREATING JOINT CONDITIONS” (Ohio State Innovation Foundation, priority 2022, published 2026).

As a reminder, the cell viability is the share of living cells, or the viability signal relative to a control.

The subject of data set [1] is human cartilage endplate (CEP) cells. Nature of the data set: PDA nanoparticle / free bevacizumab dose effect on human cartilage endplate (CEP) cell viability. Format: cell-based.
The subject of data set [2] is human annulus fibrosus (AF) cells. Put plainly: PDA nanoparticle / free bevacizumab dose effect on human annulus fibrosus (AF) cell viability. Format: cell-based. The settings on record: doses higher than 1 mg/mL.

Turning to Bevacizumab, the results for the cell viability in data set [1] (1 mg/mL dosing), in data set [1] (up to 0.5 mg/mL) and in data set [2] were 30%, > 80% and “approximately 30%”, respectively.
